Measurements as given in publication PMC5861120, “Architecture of the Saccharomyces cerevisiae NuA4/TIP60 complex” (Nature Communications, 2018).

B1: GST-tagged Eaf1 (1–530) (domain or fragment, S. cerevisiae, UniProt Q06337 1-530, looked up)
chain: MSSRPSSAVPNSASLSEDQSSDRSKFPKADDLIDERDRKLTELYCVSRLNQLLELTDENKLRKEIDAFLKKNDIRRGIRFDEASLPKLLHTAATPITKKKLKDVNLINVPNQRLSDSKMSRELPENSENVSVKSESHFVPSHDNSIRENMMDSLRPAEKTGGMWNKRPLESTMGGEEERHEKRQKMQSQSLESSNNSEMASLPISPRPPVPNALAHYTYYENIEYPPADPTEVQPAVKFKDPLIKNIMAKEIDTSDHYNENNVDALETVFLLMNDYIPSKIPQALPLAELKYMSQTLPLINLIPRAHKALTTNIINNALNEARITVVGSRIEELRRLGLWSLRQPKRFIDPWKQHNTHQNILLEEAKWMQADFKEGHKYKVAICTAMAQAIKDYWTYGEICCVKRKTLLPGKENKLSDDGRISEKSGRPSDTSRNDSDISIAGKDDIGIIANVDDITEKESAAANDNDENGKNEAGAKSDFDFADGLLSQEGAHDQIISSIDTKLLLKKPSSSSEVVLIQHEVAASSALI
notes: also called Eaf1 N-terminal half; N-terminal portion of Eaf1; source: recombinant, bacterial culture, held on glutathione sepharose beads
B2: GST-tagged Eaf1 (536–982) (domain or fragment, S. cerevisiae, UniProt Q06337 536-982, looked up)
chain: KKELAPPFKLSIFVDELNTFEKTLIQDLPLYNGINEERPKKDDSLPFIPISKSVVSLDDNGFYKLLERQLIDEEPSISQLSKRRGMFYGNRRNHYLRPPAVPSLRYLQNRTPTIWLSEDDQELVKNINTYGYNWELISAHMTHRLTYSYLSNIERRTPWQCFERFVQLNERFNFSDLKGPRAHSAQQWLIEAHKFQQRQNRRISPLGVNTESIQRGHRRLRWASMFEAIRKCMKKRENTPRPNPTQPRKPLDCKNMKVPTPAEMSLLKAQRDEALRRDIQLRRTVKNRLQQRQQQSQQAHSSRAQSPIPSNGKSSSNLARNGQASAPRPNQKQYTEQDIIESYSRKLLEQKPDIGPEMALKAAKNYYRTLREQQQQLKQHQIQQQRQQLQEESSHVQQLQQLQPGSQAPPPKSSPSQSSLSNISNINSAPRIKSPTPQEILQRFQKQ
notes: also called Eaf1 C-terminal half; C-terminal region of Eaf1; source: recombinant, bacterial culture, held on glutathione sepharose beads

Legend:
[1] = biological target: T1, Purified native TINTIN (Eaf5-Eaf7-Eaf3) (S. cerevisiae, UniProt P39995 1-279; P53911 1-425; Q12432 1-401); experiment: pull-down; 300–600 ng GST-tagged Eaf1 fragments immobilised on glutathione sepharose, incubated with purified native TINTIN or His-tagged Tra1 (3200–3744) for 3–4 h at 4 °C; binding buffer 25 mM HEPES pH 7.5, 100 mM NaCl, 10% glycerol, 0.1% Tween-20; western blotting (anti-TAP, anti-Eaf3, anti-His); details: both partners purified
T1 construct: Eaf5, S. cerevisiae; Eaf7, S. cerevisiae; Eaf3, S. cerevisiae; The pull-down blots used anti-TAP and anti-Eaf3, so one subunit probably carries a TAP tag or its remnant; also called TINTIN subcomplex; source: purified native TINTIN; copies: + +
T1 sequence (looked up) 1: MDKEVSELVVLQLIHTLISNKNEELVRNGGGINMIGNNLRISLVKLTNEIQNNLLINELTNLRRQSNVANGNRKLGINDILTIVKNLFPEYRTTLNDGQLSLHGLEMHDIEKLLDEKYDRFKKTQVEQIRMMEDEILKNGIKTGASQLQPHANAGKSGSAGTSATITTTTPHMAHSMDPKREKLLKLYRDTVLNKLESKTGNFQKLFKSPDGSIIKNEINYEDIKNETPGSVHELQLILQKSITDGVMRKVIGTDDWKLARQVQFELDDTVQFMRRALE
T1 sequence (looked up) 2: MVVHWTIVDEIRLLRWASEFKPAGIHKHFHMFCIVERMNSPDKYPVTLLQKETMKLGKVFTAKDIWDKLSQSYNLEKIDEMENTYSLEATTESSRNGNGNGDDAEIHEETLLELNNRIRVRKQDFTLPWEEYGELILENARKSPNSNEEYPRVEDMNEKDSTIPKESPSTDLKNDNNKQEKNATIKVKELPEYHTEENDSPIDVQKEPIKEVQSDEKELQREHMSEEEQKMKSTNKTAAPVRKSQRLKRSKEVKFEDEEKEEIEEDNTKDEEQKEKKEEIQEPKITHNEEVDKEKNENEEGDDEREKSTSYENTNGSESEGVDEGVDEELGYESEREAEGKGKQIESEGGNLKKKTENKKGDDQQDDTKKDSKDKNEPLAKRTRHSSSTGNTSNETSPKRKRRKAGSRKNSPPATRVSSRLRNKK
T1 sequence (looked up) 3: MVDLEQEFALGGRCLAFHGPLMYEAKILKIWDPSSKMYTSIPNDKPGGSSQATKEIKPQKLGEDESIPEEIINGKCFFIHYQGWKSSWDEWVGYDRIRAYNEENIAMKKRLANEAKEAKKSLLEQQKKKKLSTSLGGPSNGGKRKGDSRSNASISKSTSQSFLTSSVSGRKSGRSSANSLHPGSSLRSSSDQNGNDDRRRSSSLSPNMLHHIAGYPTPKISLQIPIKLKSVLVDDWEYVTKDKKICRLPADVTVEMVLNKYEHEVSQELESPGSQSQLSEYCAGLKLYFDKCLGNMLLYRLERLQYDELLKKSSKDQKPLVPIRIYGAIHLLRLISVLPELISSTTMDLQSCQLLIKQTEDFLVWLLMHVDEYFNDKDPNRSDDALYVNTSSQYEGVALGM

[2] = biological target: T2, Recombinant His-tagged Tra1 (3200–3744) (S. cerevisiae, UniProt P38811 3200-3744); experiment: as above; details: both partners purified
T2 construct: Tra1, S. cerevisiae, residues 3200–3744 (FRB-PI3K-FATC); also called recombinant Tra1 C-terminus (FRB-PI3K-FATC); source: recombinant, bacterial culture, purified (Ni-NTA, eluted with imidazole)
T2 sequence (looked up): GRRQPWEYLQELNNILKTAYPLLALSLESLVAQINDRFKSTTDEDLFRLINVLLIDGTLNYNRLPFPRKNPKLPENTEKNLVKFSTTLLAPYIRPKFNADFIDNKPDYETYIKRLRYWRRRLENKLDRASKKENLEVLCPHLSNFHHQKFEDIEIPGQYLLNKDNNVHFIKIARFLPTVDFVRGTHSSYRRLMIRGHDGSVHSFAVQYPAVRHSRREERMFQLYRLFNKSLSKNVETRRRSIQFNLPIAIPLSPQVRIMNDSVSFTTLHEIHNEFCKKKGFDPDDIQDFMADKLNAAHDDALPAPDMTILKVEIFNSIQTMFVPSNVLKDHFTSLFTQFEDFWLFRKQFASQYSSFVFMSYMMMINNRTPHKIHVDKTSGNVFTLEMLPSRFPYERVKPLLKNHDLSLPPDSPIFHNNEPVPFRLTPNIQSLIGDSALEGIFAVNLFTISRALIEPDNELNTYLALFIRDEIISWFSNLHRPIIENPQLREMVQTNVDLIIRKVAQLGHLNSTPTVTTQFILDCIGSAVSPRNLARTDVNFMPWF

Binder | binding result [1] | binding result [2]
B1 | binds | 
B2 |  | binds
